Results taken from paper PMC8422075 (EMBO Molecular Medicine, 2021).

Molecular target: T1, Human LAG3_(23–434) (human, UniProt P18627 23-434, fluorescently labelled (fluorophore and site not named))
T1 construct: Used only in the microfluidic diffusional sizing; also called labelled LAG3; source: bought: BonOpusBio (#CJ91)
T1 sequence (looked up): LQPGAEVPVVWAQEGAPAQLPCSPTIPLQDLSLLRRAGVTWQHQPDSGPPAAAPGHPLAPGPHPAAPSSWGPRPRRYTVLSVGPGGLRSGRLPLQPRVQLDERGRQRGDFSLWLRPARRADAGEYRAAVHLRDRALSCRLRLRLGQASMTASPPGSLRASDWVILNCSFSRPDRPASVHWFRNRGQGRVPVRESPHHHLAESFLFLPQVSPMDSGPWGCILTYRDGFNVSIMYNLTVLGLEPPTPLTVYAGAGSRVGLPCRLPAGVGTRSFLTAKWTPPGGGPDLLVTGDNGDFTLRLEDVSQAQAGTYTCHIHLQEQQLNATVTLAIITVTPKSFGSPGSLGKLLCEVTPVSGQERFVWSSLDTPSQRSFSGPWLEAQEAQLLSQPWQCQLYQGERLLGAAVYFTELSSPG
Assay: microfluidic diffusional sizing; fluorescently labelled protein (10 nM-10 µM) in solution, unlabelled ligand varied; PBS with 0.01% Tween-20; 60 min at room temperature; hydrodynamic radius read out; KD from Langmuir binding isotherm
Conditions: both partners purified

- Kd: 232 ± 79 nM
B1: FGL1 Protein, Human, Recombinant (ligand, UniProt Q08830 23-312, looked up)
chain: LEDCAQEQMRLRAQVRLLETRVKQQQVKIKQLLQENEVQFLDKGDENTVIDLGSKRQYADCSEIFNDGYKLSGFYKIKPLQSPAEFSVYCDMSDGGGWTVIQRRSDGSENFNRGWKDYENGFGNFVQKHGEYWLGNKNLHFLTTQEDYTLKIDLADFEKNSRYAQYKNFKVGDEKNFYELNIGEYSGTAGDSLAGNFHPEVQWWASHQRMKFSTWDRDHDNYEGNCAEEDQSGWWFNRCHSANLNGVYYSGPYTAKTDNGIVWYTWHGWWYSLKSVVMKIRPNDFIPNVI
notes: Fibrinogen-like protein 1, human, recombinant; source: bought: Sino Biological (13484‐H08B)
